# Reference: patent publication US7981423B2, “Rage fusion proteins” (Transtech Pharma, Inc., priority 2004, dated 2011)
# Tests used:
# [1] = cited from earlier work
# [2] = normal and diabetic rats; retention of immunoreactivity sRAGE; cited from earlier work
# APP transgenic mice = test: Mouse model of AD (APP transgenic mice); type: in vivo; conditions: treated for 3 months, versus vehicle and human IgG1
# Procedure: Experiments were performed to evaluate whether TTP-4000 could affect amyloid formation and cognitive dysfunction in a mouse model of AD. The experiments utilized transgenic mice expressing the human Swedish mutant amyloid precursor protein (APP) under the control of the PDGF-B chain promoter. Over time, these mice generate high levels of the RAGE ligand, amyloid beta (Aβ).
# The APP mice (male) used in this experiment were designed by microinjection of the human APP gene (with the Swedish and London mutations) into mouse eggs under the control of the platelet-derived growth factor B (PDGF-B) chain gene promoter. The mice were generated on a C57BL/6 background and were developed by Molecular Therapeutics Inc. Animals were fed ad libituin and maintained by brother sister mating. The mice generated from this construct develop amyloid deposits starting at 6 months of age. Animals were aged for 6 months and then maintained for 90 days and sacrificed for amyloid quantification.
# APP transgenic mice were administered vehicle or TTP4000 every other day [qod (i.p.)] for 90 days starting at 6 months of age. At the end of the experiment, animals were sacrificed and examined for AP plaque burden in the brain (i.e., plaque number). A 6-month control APP group was used to determine the baseline of amyloid deposits. In addition, at the end of the study, the animals were subjected to behavioral (Morris water maze) analysis. The investigators were blinded to the study compounds. Samples were given to the mice at 0.25 ml/mouse/every other day.
# For histological examination, the animals were anesthetized with an intraperitoneal injection (IP) of sodium pentobarbital (50 mg/kg). The animals were transcardially perfused with 4° C., phosphate-buffered saline (PBS) followed by 4% paraformaldehyde. The brains were removed and placed in 4% paraformaldehyde over night. The brains were processed to paraffin and embedded. Ten serial 30-μm thick sections through the brain were obtained. Sections were subjected to primary antibody overnight at 4° C. (Aβ peptide antibody) in order to detect the amyloid deposits in the brain of the transgenic animals (Guo et al., J. Neurosci., 22:5900-5909 (2002)). Sections were washed in Tris-buffered saline (TBS) and secondary antibody was added and incubated for 1 hour at room temperature. After washing, the sections were incubated as instructed in the Vector ABC Elite kit (Vector Laboratories) and stained with […] (DAB). The reactions were stopped in water and cover-slipped after treatment with xylene. The amyloid area in each section was determined with a computer-assisted image analysis system, consisting of a Power Macintosh computer equipped with a Quick Capture frame grabber card, Hitachi CCD camera mounted on an Olympus microscope and camera stand. NIH Image Analysis Software, v. 1.55 was used. The images were captured and the total area of amyloid was determined over the ten sections. A single operator blinded to treatment status performed all measurements. Summing the amyloid volumes of the sections and dividing by the total number of sections was done to calculate the amyloid volume.
# For quantitative analysis, an enzyme-linked immunosorbent assay (ELISA) was used to measure the levels of human total Aβ, Aβtotal and Aβ1-42 in the brains of APP transgenic mice (Biosource International., Camarillo, Calif.). Aβtotal and Aβ1-42 were extracted from mouse brains by guanidine hydrochloride and quantified as described by the manufacturer. […]
# amyloid-beta (Abeta) = target: T1, amyloid-beta (Abeta) (Homo sapiens, UniProt P05067); test: In vitro ligand binding ELISA, immobilized amyloid-beta; conditions: various dilutions of fusion protein; FIG. 7
# T1 construct: Amyloid Beta (1-40) from Biosource; purchased Biosource
# Procedure: (§1) For example, the RAGE fusion protein may be used in a binding assay to identify potential RAGE ligands. In one example embodiment of such a binding assay, a known RAGE ligand may coated onto a solid substrate (e.g., Maxisorb plates) at a concentration of about 5 micrograms per well, where each well contains a total volume of about 100 microliters (μL). The plates may be incubated at 4° C. overnight to allow the ligand to absorb. Alternatively, shorter incubation periods at higher temperature (e.g., room temperature) may be used. […] The fusion protein bound to the immobilized ligand may be detected in a variety of ways. […] The bound complex may be detected by adding the alkaline phosphatase substrate, para-nitrophenylphosphate (PNPP), and measuring conversion of PNPP to para-nitrophenol (PNP) as an increase in absorbance at 405 nm. […] Binding was detected by the addition of an immunodetection complex containing a monoclonal mouse anti-human IgG1 diluted 1:11,000 to a final assay concentration (FAC) of 21 ng/100 μL, a biotinylated goat anti-mouse IgG diluted 1:500, to a FAC of […], and an avidin-linked alkaline phosphatase. […] Binding of the complex to the immobilized fusion protein was quantified by measuring conversion of PNPP to para-nitrophenol (PNP) which was-measured spectrophotornetrically at 405 nm. […]
# amphoterin (Ampho) = target: T2, amphoterin (Ampho) (Homo sapiens, UniProt P09429); test: In vitro ligand binding ELISA, immobilized amphoterin; conditions: various dilutions of fusion protein; FIG. 7
# T2 sequence (P09429 1-215): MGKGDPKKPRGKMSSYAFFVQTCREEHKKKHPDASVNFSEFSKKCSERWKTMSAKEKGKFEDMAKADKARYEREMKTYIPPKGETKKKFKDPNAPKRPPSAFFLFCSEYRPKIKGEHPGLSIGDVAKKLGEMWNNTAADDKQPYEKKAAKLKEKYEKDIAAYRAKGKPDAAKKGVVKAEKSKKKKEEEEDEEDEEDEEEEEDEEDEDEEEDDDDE
# Procedure: as §1
# S100b (S100) = target: T3, S100b (S100) (Homo sapiens, UniProt P04271); test: In vitro ligand binding ELISA, immobilized S100b; conditions: various dilutions of fusion protein; FIG. 7
# T3 sequence (P04271 1-92): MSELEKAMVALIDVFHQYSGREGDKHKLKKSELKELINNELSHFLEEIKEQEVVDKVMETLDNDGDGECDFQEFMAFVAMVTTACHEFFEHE
# Procedure: as §1
# T1 sequence (P05067 672-711 limits assumed): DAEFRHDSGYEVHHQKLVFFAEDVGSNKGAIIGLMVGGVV
molecule,measurement,setting,value
"human sRAGE: human soluble RAGE (e.g., SEQ ID NO: 4) [reference compound]",half-life in plasma,[1],about 2 hours
same,half-life,[2],less than 2 hours
sRAGE: soluble RAGE: the RAGE protein that does not include the transmembrane region or the cytoplasmic tail [reference compound],half-life in plasma,[1],only a few hours
"rodent sRAGE: rodent soluble RAGE (protein, UniProt Q62151 23-340, looked up, extracellular domain, rodent soluble RAGE) extracellular domain: GQNITARIGEPLVLSCKGAPKKPPQQLEWKLNTGRTEAWKVLSPQGGPWDSVARILPNGSLLLPATGIVDEGTFRCRATNRRGKEVKSNYRVRVYQIPGKPEIVDPASELTASVPNKVGTCVSEGSYPAGTLSWHLDGKLLIPDGKETLVKEETRRHPETGLFTLRSELTVIPTQGGTHPTFSCSFSLGLPRRRPLNTAPIQLRVREPGPPEGIQLLVEPEGGIVAPGGTVTLTCAISAQPPPQVHWIKDGAPLPLAPSPVLLLPEVGHEDEGTYSCVATHPSHGPQESPPVSIRVTETGDEGPAEGSVGESGLGTLA",half-life,[2],approximately 20 hours
"mouse sRAGE: mouse soluble RAGE used as comparator in the AD mouse model (protein, UniProt Q62151 23-340, looked up, extracellular domain, mouse soluble RAGE used as comparator in the AD mouse model) extracellular domain: GQNITARIGEPLVLSCKGAPKKPPQQLEWKLNTGRTEAWKVLSPQGGPWDSVARILPNGSLLLPATGIVDEGTFRCRATNRRGKEVKSNYRVRVYQIPGKPEIVDPASELTASVPNKVGTCVSEGSYPAGTLSWHLDGKLLIPDGKETLVKEETRRHPETGLFTLRSELTVIPTQGGTHPTFSCSFSLGLPRRRPLNTAPIQLRVREPGPPEGIQLLVEPEGGIVAPGGTVTLTCAISAQPPPQVHWIKDGAPLPLAPSPVLLLPEVGHEDEGTYSCVATHPSHGPQESPPVSIRVTETGDEGPAEGSVGESGLGTLA",Aβ plaques in the brain,APP transgenic mice; FIG. 14A,fewer Aβ plaques
same,cognitive dysfunction (Morris water maze),APP transgenic mice; FIG. 14B,less cognitive dysfunction
TTP-3000: three domain RAGE fusion protein (SEQ ID NO: 35): human RAGE amino acids 1-136 linked to CH2 and CH3 domains of human IgG (protein) MAAGTAVGAWVLVLSLWGAVVGAQNITARIGEPLVLKCKGAPKKPPQRLEWKLNTGRTEAWKVLSPQGGGPWDSVARVLPNGSLFLPAVGIQDEGIFRCQAMNRNGKETKSNYRVRVYQIPGKPEIVDSASELTAGPSVFLFPPKPKDTLMISRTPEVTCVVVDVSHEDPEVKFNWYVDGVEVHNAKTKPREEQYNSTYRVVSVLTVLHQDWLNGKEYKCKVSNKALPAPIEKTISKAKGQPREPQVYTLPPSRDELTKNQVSLTCLVKGFYPSDIAVEWESNGQPENNYKTTPPVLDSDGSFFLYSKLTVDKSRWQQGNVFSCSVMHEALHNHYTQKSLSLSPGK,binding to immobilized amyloid-beta (absorbance at 405 nm),amyloid-beta (Abeta),specifically interact
same,binding to immobilized amphoterin (absorbance at 405 nm),amphoterin (Ampho),specifically interact
same,binding to immobilized S100b (absorbance at 405 nm),S100b (S100),specifically interact
